The assay deals with T1, RV3 preF OnlyEcto (Human respirovirus 3 (HPIV3), strain …, stabilised).
T1 construct: also called RV3 preF lead candidate; source: Expi293F, transfected, purified (Capto Q Impress, SEC)
Description: BLI; kinetic Octet; […] (0-900 s), […] (900-1800 s). The settings on record: both partners purified.

B1: single-domain antibody (sdAb) 4C06 (VHH)
VHH: EVQLVESGGGLVQPGGSLRLSCSASGSLSTIKALGWYRRAPGRERELVASITSAGETNYADSAKGRFTVSTDNAKNTVDLRMNSLKPEDTAVYYCYAESFVLNIYWGQGTQVTVSS
notes: also called VHH 4C06
Regarding B1, the binding result is reported as “binds”.

Values taken from paper PMC11143371 (Nature Communications, 2024).
